# Molecular target: Acinetobacter sp. Ver3 iron superoxide dismutase (^AV3SodB) (Acinetobacter sp. Ver3)
# Assay: crystal structure
substance,measurement,value
Acinetobacter sp. Ver3 iron superoxide dismutase (^AV3SodB) (enzyme),stoichiometry N,2

# Source: doi:10.1101/2021.10.11.463953
